Results published in patent US5985822A, “Inhibition of glial cell proliferation with N-CAM homophilic peptides” (The Scripps Research Institute, priority 1995, dated 1999).
Where “and” joins values, the source holds several entries; their conditions need not be identical. Equal values may be shown once.

Experiments:
C6 glioma cells = assay: Proliferation of C6 glioma cells in SFM at low cell densities; assay type: cell-based; conditions: externally added N-CAM
[1] = tested on: rat forebrain astrocytes in primary culture; assay: Astrocyte proliferation assay ([3H]-thymidine incorporation normalized to [35S]-methionine); assay type: cell-based; conditions: for inhibition of proliferation depending on cell density: 2 μg/ml N-CAM
Method: Primary cultures of astrocytes were prepared from the forebrains of 4-5 day old neonatal rats. After decapitation and removal of the forebrains from the skull, the meninges were carefully peeled off, and forebrain tissue was triturated in sterile phosphate buffered saline (PBS) using firepolished pipettes. The resulting suspension of tissue fragments was incubated in Hank's balanced salt solution (Gibco BRL) with 2.5 mg/ml trypsin, 1 mM EDTA and 0.1 mg/ml DNase (Boehringer) at 37° C. for 15 minutes. […] The pellet was resuspended in serum free medium (SFM) consisting of Dulbecco's Modified Eagle Medium (D-MEM), 2 mM L-glutamine, 50 U/ml penicillin G sodium and 50 μg/ml streptomycin sulfate (all from Gibco BRL) supplemented by 10% (vol/vol) fetal bovine serum (FBS). The cells were transferred to a standard 100 mm tissue culture dish (Falcon) and incubated at 37° C. for 1-2 hours. After mild shaking, the supernatant containing unattached cells was transferred to a 100 mm collagen-coated dish. […] Cell samples were checked regularly for the expression of GFAP, a marker for astrocytes.
After cell attachment, the culture medium was exchanged for SFM. In antisense experiments, oligonucleotides were added at the same time (T=0). […] After another 12 hours (at T=60), [^3 H]-thymidine (New England Nuclear, 20 Ci/mmol) was added (0.38 μM, 10 μCi/ml). Following an additional 12 hours (T=72), the wells were drained, counts precipitated by ice-cold […] trichloroacetic acid, and the plates left to dry. Counts were solubilized overnight by adding 100 μl 1 N KOH to each well, neutralized with 100 μl 1 N HCl, transferred to liquid scintillation vials and counted in 3 ml of Beckman Ready Safe liquid scintillation cocktail on a Packard 1600 TR counter. […] In this paper, proliferation is expressed as [^3 H]-thymidine incorporation normalized to [35]-methionine incorporation and calculated as [^3 H] dpm/ [35] dpm.

B1: N-CAM: neural cell adhesion molecule purified from early postnatal rat brains by affinity chromatography, mainly polysialylated embryonic form (protein, UniProt P13596 20-858, looked up)
Neural cell adhesion molecule …: LQVDIVPSQGEISVGESKFFLCQVAGDAKDKDISWFSPNGEKLSPNQQRISVVWNDDDSSTLTIYNANIDDAGIYKCVVTAEDGTQSEATVNVKIFQKLMFKNAPTPQEFKEGEDAVIVCDVVSSLPPTIIWKHKGRDVILKKDVRFIVLSNNYLQIRGIKKTDEGTYRCEGRILARGEINFKDIQVIVNVPPTVQARQSIVNATANLGQSVTLVCDADGFPEPTMSWTKDGEPIENEEEDDEKHIFSDDSSELTIRNVDKNDEAEYVCIAENKAGEQDASIHLKVFAKPKITYVENQTAMELEEQVTLTCEASGDPIPSITWRTSTRNISSEEKASWTRPEKQETLDGHMVVRSHARVSSLTLKSIQYTDAGEYICTASNTIGQDSQSMYLEVQYAPKLQGPVAVYTWEGNQVNITCEVFAYPSATISWFRDGQLLPSSNYSNIKIYNTPSASYLEVTPDSENDFGNYNCTAVNRIGQESLEFILVQADTPSSPSIDRVEPYSSTAQVQFDEPEATGGVPILKYKAEWKSLGEEAWHSKWYDAKEANMEGIVTIMGLKPETRYAVRLAALNGKGLGEISAATEFKTQPVREPSAPKLEGQMGEDGNSIKVNLIKQDDGGSPIRHYLVKYRALASEWKPEIRLPSGSDHVMLKSLDWNAEYEVYVVAENQQGKSKAAHFVFRTSAQPTAIPANGSPTAGLSTGAIVGILIVIFVLLLVVMDITCYFLNKCGLLMCIAVNLCGKAGPGAKGKDMEEGKAAFSKDESKEPIVEVRTEEERTPNHDGGKHTEPNETTPLTEPEKGPVETKSEPQESEAKPAPTEVKTVPNEATQTKENESKA
modifications: polysialylated embryonic form
In the case of B1, the “rate of proliferation of C6 glioma cells” value (C6 glioma cells) is reported as “decrease their rate of proliferation”, the “inhibition of proliferation depending on cell density” value ([1]; higher cell density 28×10^4 cells/cm^2, confluent) is reported as “virtually ineffective” and the “inhibition of proliferation depending on cell density” value ([1]; lower cell density 1.8×10^4 cells/cm^2) is reported as “Inhibition was maximal”. For the same molecule, the “N-CAM Alone” value ([1]; N-CAM 2 μg/ml, parallel control of each drug experiment (Table 5)) was 32.5 % of SFM Control and 34 % of SFM Control, the “maximal suppression of proliferation” value ([1]; N-CAM 10 μg/ml in SFM, 7×10^4 cells/cm^2, three preparations) was over 90% and the “effect on astrocyte proliferation (in words)” value ([1]; added to astrocyte cultures in SFM) was “inhibited their proliferation in a concentration dependent manner”. For the same molecule, the “suppressive effect of N-CAM added together with growth stimulus” value ([1]; with 1% FBS or 20 ng/ml bFGF) was “suppressive effect similar in magnitude to that observed in SFM”.
